Assay results taken from US20250171562A1 (ALK ABELL, published 2025).

Target: T1, recombinant human IgE (human, UniProt P01854-1 1-428)
T1 construct: made in-house (ALK); preloaded on immobilised FcεRIα in the displacement ELISA
Assay: IgE-FcεRIα displacement ELISA
Summary of the method: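 Streptavidin-coated plates carried site-specifically biotinylated recombinant human FcεRIα, loaded with recombinant human IgE at 13 ng/ml. sdAbs in a pM–μM series were added for 1 h, and displaced IgE was washed off. Percent displacement was the signal reduction versus the no-sdAb control, giving EC50 and maximal effect.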

T1 sequence (P01854 other isoform, or with tags, fused parts or gaps): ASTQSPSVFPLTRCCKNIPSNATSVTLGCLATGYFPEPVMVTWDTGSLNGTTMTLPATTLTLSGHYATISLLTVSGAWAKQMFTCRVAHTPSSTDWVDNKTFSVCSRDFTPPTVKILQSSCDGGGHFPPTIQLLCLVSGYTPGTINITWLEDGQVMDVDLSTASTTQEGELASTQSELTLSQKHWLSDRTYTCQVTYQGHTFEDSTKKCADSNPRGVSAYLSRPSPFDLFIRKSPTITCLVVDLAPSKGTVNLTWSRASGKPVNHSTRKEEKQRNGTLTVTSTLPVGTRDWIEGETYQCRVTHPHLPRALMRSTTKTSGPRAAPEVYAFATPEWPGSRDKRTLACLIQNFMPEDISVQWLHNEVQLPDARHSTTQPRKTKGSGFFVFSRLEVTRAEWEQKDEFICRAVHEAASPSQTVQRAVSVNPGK

Row | Binder | EC50 [nM] | Max effect [%]
1 | CIgG4B1A2(G4S)3 (Fc fusion) chain 1: GPPCPPCPAPEFLGGPSVFLFPPKPKDTLMISRTPEVTCVVVDVSQEDPEVQFNWYVDGVEVHNAKTKPREEQFNSTYRVVSVLTVLHQDWLNGKEYKCKVSNKGLPSSIEKTISKAKGQPREPQVYTLPPCQEEMTKNQVSLWCLVKGFYPSDIAVEWESNGQPENNYKTTPPVLDSDGSFFLYSRLTVDKSRWQEGNVFSCSVMHEALHNHYTQKSLSLSLGKGGGGSGGGGSGGGGSQVQLQESGGGLVQTGGSLRLSCAVHGRTFSNTGMGWFRQAPGNERQFVAIISPSGTSTYYADSVKGRFTISRDPAKNTVYLQMNSLKMDDTAVYYCAASYGSNWSTLRHQRRNEYDAWGQGTQVAVS chain 2: GPPCPPCPAPEFLGGPSVFLFPPKPKDTLMISRTPEVTCVVVDVSQEDPEVQFNWYVDGVEVHNAKTKPREEQFNSTYRVVSVLTVLHQDWLNGKEYKCKVSNKGLPSSIEKTISKAKGQPREPQVCTLPPSQEEMTKNQVSLSCAVKGFYPSDIAVEWESNGQPENNYKTTPPVLDSDGSFFLVSRLTVDKSRWQEGNVFSCSVMHEALHNHYTQKSLSLSLGKGGGGSGGGGSGGGGSEVQLLESGGGLVQPGGSLRLSCAASGFRFGNYDMAWVRQAPGKRYEWVSSIDTGGDITHYADSVKGRFTISRDNAKNTLYLQMNSLRPEDTAEYWCATDEEYALGPNEFDYYGQGTLVTVS | 2.5 | > 95
2 | NIgG4B1A2(G4S)1 (Fc fusion) chain 1: QVQLQESGGGLVQTGGSLRLSCAVHGRTFSNTGMGWFRQAPGNERQFVAIISPSGTSTYYADSVKGRFTISRDPAKNTVYLQMNSLKMDDTAVYYCAASYGSNWSTLRHQRRNEYDAWGQGTQVAVSGGGGSGPPCPPCPAPEFLGGPSVFLFPPKPKDTLMISRTPEVTCVVVDVSQEDPEVQFNWYVDGVEVHNAKTKPREEQFNSTYRVVSVLTVLHQDWLNGKEYKCKVSNKGLPSSIEKTISKAKGQPREPQVYTLPPCQEEMTKNQVSLWCLVKGFYPSDIAVEWESNGQPENNYKTTPPVLDSDGSFFLYSRLTVDKSRWQEGNVFSCSVMHEALHNHYTQKSLSLSLGK chain 2: EVQLLESGGGLVQPGGSLRLSCAASGFRFGNYDMAWVRQAPGKRYEWVSSIDTGGDITHYADSVKGRFTISRDNAKNTLYLQMNSLRPEDTAEYWCATDEEYALGPNEFDYYGQGTLVTVSGGGGSGPPCPPCPAPEFLGGPSVFLFPPKPKDTLMISRTPEVTCVVVDVSQEDPEVQFNWYVDGVEVHNAKTKPREEQFNSTYRVVSVLTVLHQDWLNGKEYKCKVSNKGLPSSIEKTISKAKGQPREPQVCTLPPSQEEMTKNQVSLSCAVKGFYPSDIAVEWESNGQPENNYKTTPPVLDSDGSFFLVSRLTVDKSRWQEGNVFSCSVMHEALHNHYTQKSLSLSLGK | – | > 95
3 | NIgG4B1A2(G4S)2 (Fc fusion) chain 1: QVQLQESGGGLVQTGGSLRLSCAVHGRTFSNTGMGWFRQAPGNERQFVAIISPSGTSTYYADSVKGRFTISRDPAKNTVYLQMNSLKMDDTAVYYCAASYGSNWSTLRHQRRNEYDAWGQGTQVAVSGGGGSGGGGSGPPCPPCPAPEFLGGPSVFLFPPKPKDTLMISRTPEVTCVVVDVSQEDPEVQFNWYVDGVEVHNAKTKPREEQFNSTYRVVSVLTVLHQDWLNGKEYKCKVSNKGLPSSIEKTISKAKGQPREPQVYTLPPCQEEMTKNQVSLWCLVKGFYPSDIAVEWESNGQPENNYKTTPPVLDSDGSFFLYSRLTVDKSRWQEGNVFSCSVMHEALHNHYTQKSLSLSLGK chain 2: EVQLLESGGGLVQPGGSLRLSCAASGFRFGNYDMAWVRQAPGKRYEWVSSIDTGGDITHYADSVKGRFTISRDNAKNTLYLQMNSLRPEDTAEYWCATDEEYALGPNEFDYYGQGTLVTVSGGGGSGGGGSGPPCPPCPAPEFLGGPSVFLFPPKPKDTLMISRTPEVTCVVVDVSQEDPEVQFNWYVDGVEVHNAKTKPREEQFNSTYRVVSVLTVLHQDWLNGKEYKCKVSNKGLPSSIEKTISKAKGQPREPQVCTLPPSQEEMTKNQVSLSCAVKGFYPSDIAVEWESNGQPENNYKTTPPVLDSDGSFFLVSRLTVDKSRWQEGNVFSCSVMHEALHNHYTQKSLSLSLGK | – | > 95
4 | CIgG4B1A2(G4S)1 (Fc fusion) chain 1: GPPCPPCPAPEFLGGPSVFLFPPKPKDTLMISRTPEVTCVVVDVSQEDPEVQFNWYVDGVEVHNAKTKPREEQFNSTYRVVSVLTVLHQDWLNGKEYKCKVSNKGLPSSIEKTISKAKGQPREPQVYTLPPCQEEMTKNQVSLWCLVKGFYPSDIAVEWESNGQPENNYKTTPPVLDSDGSFFLYSRLTVDKSRWQEGNVFSCSVMHEALHNHYTQKSLSLSLGKGGGGSQVQLQESGGGLVQTGGSLRLSCAVHGRTFSNTGMGWFRQAPGNERQFVAIISPSGTSTYYADSVKGRFTISRDPAKNTVYLQMNSLKMDDTAVYYCAASYGSNWSTLRHQRRNEYDAWGQGTQVAVS chain 2: GPPCPPCPAPEFLGGPSVFLFPPKPKDTLMISRTPEVTCVVVDVSQEDPEVQFNWYVDGVEVHNAKTKPREEQFNSTYRVVSVLTVLHQDWLNGKEYKCKVSNKGLPSSIEKTISKAKGQPREPQVCTLPPSQEEMTKNQVSLSCAVKGFYPSDIAVEWESNGQPENNYKTTPPVLDSDGSFFLVSRLTVDKSRWQEGNVFSCSVMHEALHNHYTQKSLSLSLGKGGGGSEVQLLESGGGLVQPGGSLRLSCAASGFRFGNYDMAWVRQAPGKRYEWVSSIDTGGDITHYADSVKGRFTISRDNAKNTLYLQMNSLRPEDTAEYWCATDEEYALGPNEFDYYGQGTLVTVS | 3 | > 95
5 | NIgG4B2A1(RS) (Fc fusion) chain 1: QVQLVESGGGLVQAGGSLRLSCAVFGSTFSNNVADWYRQAPGKQRELVARISASGATREYGDSVKGRFTISRDDAKNTMYLQMNNLKPEDTAVYRCHKIEWEDLSRKDYWGQGTQVTVSRSGPPCPPCPAPEFLGGPSVFLFPPKPKDTLMISRTPEVTCVVVDVSQEDPEVQFNWYVDGVEVHNAKTKPREEQFNSTYRVVSVLTVLHQDWLNGKEYKCKVSNKGLPSSIEKTISKAKGQPREPQVYTLPPCQEEMTKNQVSLWCLVKGFYPSDIAVEWESNGQPENNYKTTPPVLDSDGSFFLYSRLTVDKSRWQEGNVFSCSVMHEALHNHYTQKSLSLSLGK chain 2: EVQLLESGGGLVQPGGSLRLSCAASGFTFGNYDMAWVRQAPGKRPEWVSSIDTGGDITHYADSVKGRFTISRDNAKNTLYLQMNSLRPEDTAVYWCATDEEYALGPNEFDYYGQGTLVTVSSRSGPPCPPCPAPEFLGGPSVFLFPPKPKDTLMISRTPEVTCVVVDVSQEDPEVQFNWYVDGVEVHNAKTKPREEQFNSTYRVVSVLTVLHQDWLNGKEYKCKVSNKGLPSSIEKTISKAKGQPREPQVCTLPPSQEEMTKNQVSLSCAVKGFYPSDIAVEWESNGQPENNYKTTPPVLDSDGSFFLVSRLTVDKSRWQEGNVFSCSVMHEALHNHYTQKSLSLSLGK | – | > 95
6 | CIgG4B1A2(RS) (Fc fusion) chain 1: GPPCPPCPAPEFLGGPSVFLFPPKPKDTLMISRTPEVTCVVVDVSQEDPEVQFNWYVDGVEVHNAKTKPREEQFNSTYRVVSVLTVLHQDWLNGKEYKCKVSNKGLPSSIEKTISKAKGQPREPQVYTLPPCQEEMTKNQVSLWCLVKGFYPSDIAVEWESNGQPENNYKTTPPVLDSDGSFFLYSRLTVDKSRWQEGNVFSCSVMHEALHNHYTQKSLSLSLGKRSQVQLQESGGGLVQTGGSLRLSCAVHGRTFSNTGMGWFRQAPGNERQFVAIISPSGTSTYYADSVKGRFTISRDPAKNTVYLQMNSLKMDDTAVYYCAASYGSNWSTLRHQRRNEYDAWGQGTQVAVS chain 2: GPPCPPCPAPEFLGGPSVFLFPPKPKDTLMISRTPEVTCVVVDVSQEDPEVQFNWYVDGVEVHNAKTKPREEQFNSTYRVVSVLTVLHQDWLNGKEYKCKVSNKGLPSSIEKTISKAKGQPREPQVCTLPPSQEEMTKNQVSLSCAVKGFYPSDIAVEWESNGQPENNYKTTPPVLDSDGSFFLVSRLTVDKSRWQEGNVFSCSVMHEALHNHYTQKSLSLSLGKRSEVQLLESGGGLVQPGGSLRLSCAASGFRFGNYDMAWVRQAPGKRYEWVSSIDTGGDITHYADSVKGRFTISRDNAKNTLYLQMNSLRPEDTAEYWCATDEEYALGPNEFDYYGQGTLVTVS | 5 | > 95
7 | NIgG4B1A2(G4S)3 (Fc fusion) chain 1: QVQLQESGGGLVQTGGSLRLSCAVHGRTFSNTGMGWFRQAPGNERQFVAIISPSGTSTYYADSVKGRFTISRDPAKNTVYLQMNSLKMDDTAVYYCAASYGSNWSTLRHQRRNEYDAWGQGTQVAVSGGGGSGGGGSGGGGSGPPCPPCPAPEFLGGPSVFLFPPKPKDTLMISRTPEVTCVVVDVSQEDPEVQFNWYVDGVEVHNAKTKPREEQFNSTYRVVSVLTVLHQDWLNGKEYKCKVSNKGLPSSIEKTISKAKGQPREPQVYTLPPCQEEMTKNQVSLWCLVKGFYPSDIAVEWESNGQPENNYKTTPPVLDSDGSFFLYSRLTVDKSRWQEGNVFSCSVMHEALHNHYTQKSLSLSLGK chain 2: EVQLLESGGGLVQPGGSLRLSCAASGFRFGNYDMAWVRQAPGKRYEWVSSIDTGGDITHYADSVKGRFTISRDNAKNTLYLQMNSLRPEDTAEYWCATDEEYALGPNEFDYYGQGTLVTVSGGGGSGGGGSGGGGSGPPCPPCPAPEFLGGPSVFLFPPKPKDTLMISRTPEVTCVVVDVSQEDPEVQFNWYVDGVEVHNAKTKPREEQFNSTYRVVSVLTVLHQDWLNGKEYKCKVSNKGLPSSIEKTISKAKGQPREPQVCTLPPSQEEMTKNQVSLSCAVKGFYPSDIAVEWESNGQPENNYKTTPPVLDSDGSFFLVSRLTVDKSRWQEGNVFSCSVMHEALHNHYTQKSLSLSLGK | – | > 95
8 | CIgG4B1A2(G4S)2 (Fc fusion) chain 1: GPPCPPCPAPEFLGGPSVFLFPPKPKDTLMISRTPEVTCVVVDVSQEDPEVQFNWYVDGVEVHNAKTKPREEQFNSTYRVVSVLTVLHQDWLNGKEYKCKVSNKGLPSSIEKTISKAKGQPREPQVYTLPPCQEEMTKNQVSLWCLVKGFYPSDIAVEWESNGQPENNYKTTPPVLDSDGSFFLYSRLTVDKSRWQEGNVFSCSVMHEALHNHYTQKSLSLSLGKGGGGSGGGGSQVQLQESGGGLVQTGGSLRLSCAVHGRTFSNTGMGWFRQAPGNERQFVAIISPSGTSTYYADSVKGRFTISRDPAKNTVYLQMNSLKMDDTAVYYCAASYGSNWSTLRHQRRNEYDAWGQGTQVAVS chain 2: GPPCPPCPAPEFLGGPSVFLFPPKPKDTLMISRTPEVTCVVVDVSQEDPEVQFNWYVDGVEVHNAKTKPREEQFNSTYRVVSVLTVLHQDWLNGKEYKCKVSNKGLPSSIEKTISKAKGQPREPQVCTLPPSQEEMTKNQVSLSCAVKGFYPSDIAVEWESNGQPENNYKTTPPVLDSDGSFFLVSRLTVDKSRWQEGNVFSCSVMHEALHNHYTQKSLSLSLGKGGGGSGGGGSEVQLLESGGGLVQPGGSLRLSCAASGFRFGNYDMAWVRQAPGKRYEWVSSIDTGGDITHYADSVKGRFTISRDNAKNTLYLQMNSLRPEDTAEYWCATDEEYALGPNEFDYYGQGTLVTVS | 2.7 | > 95
